Results taken from patent publication US20090281035A1.

Target: CD94-NKG2A-mFc singlechain (human)
Test: SPR, scCD94/NKG2A chip saturated with humZ270 10 µg/ml, then HLA-E tetramer 8 µg/ml (competitor: HLA-E tetramer)

CD94-NKG2A-mFc singlechain (human), sequence (chain, as listed by the source): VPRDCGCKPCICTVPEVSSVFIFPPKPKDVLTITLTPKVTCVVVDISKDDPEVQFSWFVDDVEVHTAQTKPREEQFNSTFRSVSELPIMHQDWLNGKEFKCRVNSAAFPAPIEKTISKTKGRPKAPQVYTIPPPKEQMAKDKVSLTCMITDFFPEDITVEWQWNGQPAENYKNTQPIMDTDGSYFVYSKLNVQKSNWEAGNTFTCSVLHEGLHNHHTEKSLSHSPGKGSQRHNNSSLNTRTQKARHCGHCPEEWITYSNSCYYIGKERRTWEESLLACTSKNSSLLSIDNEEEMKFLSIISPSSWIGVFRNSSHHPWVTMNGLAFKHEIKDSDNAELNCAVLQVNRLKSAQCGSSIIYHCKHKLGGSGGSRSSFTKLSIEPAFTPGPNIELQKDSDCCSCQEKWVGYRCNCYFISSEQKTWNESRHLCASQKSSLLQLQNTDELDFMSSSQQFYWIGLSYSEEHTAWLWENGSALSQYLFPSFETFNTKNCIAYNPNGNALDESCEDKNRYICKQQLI

humZ270 (antibody)
percentage of inhibition of HLA-E tetramer binding: 81.8%
